Measurements from patent US8420051B2, “Muteins of hNGAL and related proteins with affinity for a given target” (Technische Universitaet Meunchen, priority 2008, dated 2013).
Read-outs that look alike come from different tables or passages of the source.

What was measured:
[1] = target: human neutrophil gelatinase-associated lipocalin (hNGAL, Lcn2, P80188), wild type (Homo sapiens, UniProt P80188); settings: cited from earlier work
[2] = target: T1, hNGAL mutein C26, SEQ ID NO: 10 (Yd5 + L42P/P48L/Q49L/I55T/K75M) (Homo sapiens, UniProt P80188, C107S/D97E/I100T/I61A/I75T/K154S/K95M/L56R/L62P/L90R/P68L/Q48H/Q69L/R101M/S147Q/S88A/T156S/T165A/T74Q/V53Q/W99L/Y158L/Y72T); format: binding; settings: read-out: Kg (from half-maximal free metal chelate concentration)
T1 construct: the mature hNGAL protein and the C-terminal Strep-tag II; OmpA signal peptide (N, cleaved yes); made in house; host or cells: E. coli BL21 or TG1-F- (periplasm), plasmid pNGAL15
T1 sequence (P80188 21-198 with the stated changes): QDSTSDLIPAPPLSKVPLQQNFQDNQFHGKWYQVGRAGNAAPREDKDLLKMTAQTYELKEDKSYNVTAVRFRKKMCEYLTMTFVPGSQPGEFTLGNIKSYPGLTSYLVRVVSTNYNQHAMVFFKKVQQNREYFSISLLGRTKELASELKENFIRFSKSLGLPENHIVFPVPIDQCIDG

[3] = target: T2, hNGAL mutein Tb7, SEQ ID NO: 2 (Gln28His, Val33Gln, Leu36Arg, Ile41Ala, Tyr52Thr, Thr54Gln, Ser68Ala, Leu70Arg, Trp79Ala, Arg81Met, Cys87Ser, Lys134Ser, Tyr138L (Homo sapiens, UniProt P80188, C107S/I61A/K154S/L56R/L90R/Q48H/R101M/S88A/T165A/T74Q/V53Q/W99A/Y158L/Y72T)); assay: SPR (Biacore), immobilized Me•DTPA-RNase; format: binding
T2 construct: the mature hNGAL protein and the C-terminal Strep-tag II; OmpA signal peptide (N, cleaved yes); made in house; host or cells: E. coli BL21 or TG1-F- (periplasm), plasmid pNGAL15
T2 sequence (P80188 21-198 Q48H/V53Q/L56R/I61A/Y72T/T74Q/S88A/L90R/W99A/R101M/C107S/K154S/Y158L/T165A): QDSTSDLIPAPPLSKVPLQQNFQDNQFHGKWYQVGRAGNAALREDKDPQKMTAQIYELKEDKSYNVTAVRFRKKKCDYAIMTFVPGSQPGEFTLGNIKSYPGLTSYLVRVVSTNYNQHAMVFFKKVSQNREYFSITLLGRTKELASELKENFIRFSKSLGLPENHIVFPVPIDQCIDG
Description: (§1) Real time analysis of hNGAL variants was performed on a BIAcore X system (BIAcore, Uppsala, Sweden) using PBS/t (PBS containing 0.005% (v/v) Tween 20) as running buffer. 5 to 27 μg/ml solutions of the Me•DTPA-RNase conjugate in 10 mM Na-acetate, pH 5.0 were immobilized on a CM5 chip using standard amine coupling chemistry, resulting in a ligand density of 240 to 1800 resonance units (RU). The purified hNGAL variant was applied at a flow rate of 5 or 25 μl/min at concentrations of 0.5 up to 500 nM. The sensorgrams were corrected by subtraction of the corresponding signals measured for the control channel, which had been activated and blocked with ethanolamine. Kinetic data evaluation was performed by global fitting with BIAevaluation software V 3.0 (Karlsson et al. (1991) J. Immunol. Methods 145, 229-240). Alternatively, the plateau values at the end of the association phase (after 200 s) were plotted against the applied protein concentration and fitted as in the ELISA (see above) to determine the equilibrium dissociation constants (KO.
(§2) Finally, the hNGAL variants were analyzed by SPR using a Biacore CM-5 chip with the covalently attached Y-DTPA-RNaseA conjugate and applying the purified recombinant proteins (Table 3). […] The improved KD values result primarily from slower ligand dissociation.

[4] = target: T3, hNGAL mutein Tb7.N9, SEQ ID NO: 6 (Tb7 + A79L/I80T) (Homo sapiens, UniProt P80188, C107S/I100T/I61A/K154S/L56R/L90R/Q48H/R101M/S88A/T165A/T74Q/V53Q/W99L/Y158L/Y72T); assay: SPR (Biacore), immobilized Me•DTPA-RNase; format: binding
T3 construct: the mature hNGAL protein and the C-terminal Strep-tag II; OmpA signal peptide (N, cleaved yes); made in house; host or cells: E. coli BL21 or TG1-F- (periplasm), plasmid pNGAL15
T3 sequence (P80188 21-198 Q48H/V53Q/L56R/I61A/Y72T/T74Q/S88A/L90R/W99L/I100T/R101M/C107S/K154S/Y158L/T165A): as the sequence (P80188 21-198 Q48H/V53Q/L56R/I61A/Y72T/T74Q/S88A/L90R/W99A/R101M/C107S/K154S/Y158L/T165A) above, with A79L, I80T counted along it
Description: as §1, §2

[5] = target: T4, hNGAL mutein Tb7.N9.N34, SEQ ID NO: 7 (Tb7.N9 + S127Q) (Homo sapiens, UniProt P80188, C107S/I100T/I61A/K154S/L56R/L90R/Q48H/R101M/S147Q/S88A/T165A/T74Q/V53Q/W99L/Y158L/Y72T); assay: SPR (Biacore), immobilized Me•DTPA-RNase; format: binding
T4 construct: the mature hNGAL protein and the C-terminal Strep-tag II; Strep-tag II (C); OmpA signal peptide (N, cleaved yes); made in house; host or cells: E. coli BL21 or TG1-F- (periplasm), plasmid pNGAL15
T4 sequence (P80188 21-198 with the stated changes): as the sequence (P80188 21-198 Q48H/V53Q/L56R/I61A/Y72T/T74Q/S88A/L90R/W99A/R101M/C107S/K154S/Y158L/T165A) above, with A79L, I80T, S127Q counted along it
Description: as §1, §2

[6] = target: T5, hNGAL mutein Ya6, SEQ ID NO: 8 (Tb7.N9.N34 with Thr136Ser) (Homo sapiens, UniProt P80188, C107S/I100T/I61A/K154S/L56R/L90R/Q48H/R101M/S147Q/S88A/T156S/T165A/T74Q/V53Q/W99L/Y158L/Y72T); assay: SPR (Biacore), immobilized Me•DTPA-RNase; format: binding
T5 construct: the mature hNGAL protein and the C-terminal Strep-tag II; Strep-tag II (C); OmpA signal peptide (N, cleaved yes); made in house; host or cells: E. coli BL21 or TG1-F- (periplasm), plasmid pNGAL15
T5 sequence (P80188 21-198 with the stated changes): as the sequence (P80188 21-198 Q48H/V53Q/L56R/I61A/Y72T/T74Q/S88A/L90R/W99A/R101M/C107S/K154S/Y158L/T165A) above, with A79L, I80T, S127Q, T136S counted along it
Description: as §1, §2

[7] = target: T6, hNGAL mutein Yd5, SEQ ID NO: 9 (Tb7.N9.N34 + D77E/T136S) (Homo sapiens, UniProt P80188, C107S/D97E/I100T/I61A/K154S/L56R/L90R/Q48H/R101M/S147Q/S88A/T156S/T165A/T74Q/V53Q/W99L/Y158L/Y72T); assay: SPR (Biacore), immobilized Me•DTPA-RNase; format: binding
T6 construct: the mature hNGAL protein and the C-terminal Strep-tag II; OmpA signal peptide (N, cleaved yes); made in house; host or cells: E. coli BL21 or TG1-F- (periplasm), plasmid pNGAL15
T6 sequence (P80188 21-198 with the stated changes): as the sequence (P80188 21-198 Q48H/V53Q/L56R/I61A/Y72T/T74Q/S88A/L90R/W99A/R101M/C107S/K154S/Y158L/T165A) above, with D77E, A79L, I80T, S127Q, T136S counted along it
Description: as §1, §2

[8] = target: T7, human neutrophil gelatinase-associated lipocalin (hNGAL), wild type, SEQ ID NO: 1 (Homo sapiens, UniProt P80188); assay: ELISA, captured hNGAL variant with Me•DTPA conjugate; format: binding
T7 construct: the mature hNGAL protein and the C-terminal Strep-tag II; OmpA signal peptide (N, cleaved yes); made in house; host or cells: E. coli BL21 or TG1-F- (periplasm), plasmid pNGAL14
T7 sequence (P80188 21-198): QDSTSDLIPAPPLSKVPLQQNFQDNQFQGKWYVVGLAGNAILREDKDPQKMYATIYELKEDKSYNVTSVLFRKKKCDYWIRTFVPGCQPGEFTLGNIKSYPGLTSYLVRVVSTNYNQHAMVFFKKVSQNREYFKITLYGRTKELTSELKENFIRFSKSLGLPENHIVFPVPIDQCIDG

[9] = target: T8, hNGAL mutein Tb7, SEQ ID NO: 2 (Homo sapiens, UniProt P80188, C107S/I61A/K154S/L56R/L90R/Q48H/R101M/S88A/T165A/T74Q/V53Q/W99A/Y158L/Y72T); assay: as above; format: binding; settings: Tb•DTPA-RNase A conjugate, read-out: apparent affinity
T8 construct: the mature hNGAL protein and the C-terminal Strep-tag II; OmpA signal peptide (N, cleaved yes); made in house; host or cells: E. coli BL21 or TG1-F- (periplasm), plasmid pNGAL15
T8 sequence (P80188 21-198 Q48H/V53Q/L56R/I61A/Y72T/T74Q/S88A/L90R/W99A/R101M/C107S/K154S/Y158L/T165A): as the sequence (P80188 21-198 Q48H/V53Q/L56R/I61A/Y72T/T74Q/S88A/L90R/W99A/R101M/C107S/K154S/Y158L/T165A) above

[10] = 5 μl/min, from the kinetic analysis, read-out: KD
[11] = equilibrium analysis, read-out: Kd/eq

human neutrophil gelatinase-associated lipocalin (hNGAL, Lcn2, P80188), wild type, sequence (P80188 21-198, one chain of several): as the sequence (P80188 21-198) above

## O=C(N[C@H]1COC(=O)[C@@H](NC(=O)c2cccc(O)c2O)COC(=O)[C@@H](NC(=O)c2cccc(O)c2O)COC1=O)c1cccc(O)c1O.[Fe+3] [Fe^3+-enterobactin, enterobactin]
[1]; read-out: dissociation constant (KD)
  Kd: 0.4 nM

## Nc1ccc(C[C@H](CN(CC(=O)O)[C@H]2CCCC[C@@H]2N(CC(=O)O)CC(=O)O)N(CC(=O)O)CC(=O)O)cc1.[Gd+3] [Me•p-NH2-Bn-CHX-A″-DTPA (Gd^3+), [(R)-2-amino-3-(4-aminophenyl)propyl]-trans-(S,S)-cyclohexane-1,2-diamine-pentaacetic acid]
[2]
  Kd: 3.6 ± 0.24 nM

## Nc1ccc(C[C@H](CN(CC(=O)O)[C@H]2CCCC[C@@H]2N(CC(=O)O)CC(=O)O)N(CC(=O)O)CC(=O)O)cc1.[In+3] [Me•p-NH2-Bn-CHX-A″-DTPA (In^3+), [(R)-2-amino-3-(4-aminophenyl)propyl]-trans-(S,S)-cyclohexane-1,2-diamine-pentaacetic acid]
[2]
  Kd: 44.7 ± 2.5 nM

## Nc1ccc(C[C@H](CN(CC(=O)O)[C@H]2CCCC[C@@H]2N(CC(=O)O)CC(=O)O)N(CC(=O)O)CC(=O)O)cc1.[Tb+3] [Me•p-NH2-Bn-CHX-A″-DTPA (Tb^3+), [(R)-2-amino-3-(4-aminophenyl)propyl]-trans-(S,S)-cyclohexane-1,2-diamine-pentaacetic acid]
[2]
  Kd: 2.9 ± 0.17 nM

## C[C@H]1OC(=O)[C@@H](NC(=O)CNC(=O)c2cccc(O)c2O)[C@@H](C)OC(=O)[C@@H](NC(=O)CNC(=O)c2cccc(O)c2O)[C@@H](C)OC(=O)[C@H]1NC(=O)CNC(=O)c1cccc(O)c1O [bacillibactin]
[1]
  binding: forms stable complexes

## O=C(CC(O)(CC(=O)NCCCCNCCCNC(=O)c1ccc(O)c(O)c1)C(=O)O)NCCCCNCCCNC(=O)c1ccc(O)c(O)c1 [petrobactin]
[1]
  binding: does not bind

B1: Tb^3+•DTPA-RNase: p-SCN-Bn-CHX-A″-DTPA covalently coupled to bovine ribonuclease A (about 1:1), charged with Tb^3+ (conjugate, UniProt P61823 27-150, looked up)
Ribonuclease pancreatic: KETAAAKFERQHMDSSTSAASSSNYCNQMMKSRNLTKDRCKPVNTFVHESLADVQAVCSQKNVACKNGQTNCYQSYSTMSITDCRETGSSKYPNCAYKTTQANKHIIVACEGNPYVPVHFDASV
modifications: CHX-A''-DTPA chelate with Tb3+
[3]; 5 μl/min
  koff: 0.0401 s⁻¹
  kon: 535000 M⁻¹ s⁻¹
[3]; [10]
  Kd: 74.9 nM
[3]; from concentration-dependent saturation values in an equilibrium analysis, read-out: Kd/eq
  Kd: 50 ± 6.5 nM
[4]; 5 μl/min
  koff: 0.0105 s⁻¹
  kon: 689000 M⁻¹ s⁻¹
[4]; [10]
  Kd: 15.2 nM
[4]; [11]
  Kd: 25 ± 2.7 nM
[5]; 5 μl/min
  koff: 0.0114 s⁻¹
  kon: 746000 M⁻¹ s⁻¹
[5]; [10]
  Kd: 15.3 nM
[5]; [11]
  Kd: 21 ± 2.3 nM
[6]; 5 μl/min
  koff: 0.00296 s⁻¹
[6]; [10]
  Kd: 2.39 nM
[6]; [11]
  Kd: 5 ± 0.22 nM
[7]; 5 μl/min
  koff: 0.00246 s⁻¹
  kon: 1e+06 M⁻¹ s⁻¹
[7]; [10]
  Kd: 2.34 nM
[7]; [11]
  Kd: 3.8 ± 0.15 nM
[8]
  binding activity: no measurable binding activity
[9]
  Kd: 74.5 ± 7.8 nM
